In paper PMC13393415, “The bacterial SOS response promotes the expression of the transposase encoded by ISCR mobile genetic elements”:
Substitutions are numbered along the chain they refer to.

B1: Prcr8 (dsDNA)
DNA 1: GGCGACGGTTCGGGCCTTGTGCTTTGCGTACCCAAACAATCGCCGCAGAATACTGTGCATTTGTACAGCATTCATGTCAGCCACTTCCAAGCCCAAGCTCTACAACCCACGCCACCCCGA
DNA 2: TCGGGGTGGCGTGGGTTGTAGAGCTTGGGCTTGGAAGTGGCTGACATGAATGCTGTACAAATGCACAGTATTCTGCGGCGATTGTTTGGGTACGCAAAGCACAAGGCCCGAACCGTCGCC
B2: Prcr8 L (dsDNA)
DNA 1: B1 DNA 1 with C66A, A67C, G68T
DNA 2: B1 DNA 2 with C53A, T54G, G55T
modifications: LexA box mutated (terminal ACAG to AACT)

What was measured:
[1] = biological target: T1, His6-LexA (Escherichia coli) (UniProt P0A7C2); assay: EMSA; settings: 10 mM HEPES pH 8, 10 mM Tris-HCl pH 8, 50 mM KCl, 1 mM EDTA; on ice 20 min; 40 ng DNA, 0-600 ng LexA in 10 uL; 6% native Tris-glycine PAGE, SYBR Green
T1 sequence: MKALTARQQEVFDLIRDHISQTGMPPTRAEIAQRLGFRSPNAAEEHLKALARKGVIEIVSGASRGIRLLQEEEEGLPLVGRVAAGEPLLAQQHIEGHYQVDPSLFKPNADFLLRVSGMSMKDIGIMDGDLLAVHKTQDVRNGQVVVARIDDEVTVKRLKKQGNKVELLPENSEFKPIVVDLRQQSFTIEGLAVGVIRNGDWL

His6-LexA = His6-LexA (Escherichia coli, UniProt P0A7C2 1-202); assay: EMSA; 10 mM HEPES pH 8, 10 mM Tris-HCl pH 8, 50 mM KCl, 1 mM EDTA; on ice 20 min; 40 ng DNA, 0-600 ng LexA in 10 uL; 6% native Tris-glycine PAGE, SYBR Green; settings: protein: recombinant; tags: N-terminal His6; blunt

| Molecule | binding [1] | binding result (His6-LexA) |
| --- | --- | --- |
| CAACCGGTAGTGGCTGATAACAACTCGTGAGGGCTATTGCGGGTTAAGCATTTAGCGATGTCTAGGGCCAGACTGGACGTCTGAACGCAAGCCGCTGATACTGTACATAACCACAGTATCAGCGGAGGATACCCATGTCGCTGGCAAGGAACGCCACGGCGAGTCAATCGCCCACTCAAACAAACGGTTACGAACGCCACCAACCCGACCAGACGCTG (double strand) [Prcr1] | binds |  |
| CCGGAATTCGGGAGTGACGGGCACTGGCTGGCAATGTCTAGCAACGGCAGGCATTTCGGCTGAGGGTAAAAGAACTTTCCGCTAAGCGATAGACTGTATGTAAACACAGTATTGCAAGGACGCGGAACATGCCTCATGTGGCGGCCAGGACGGCCAGCCGGGATCGGGATACTGGTCGTTACCAGAGCCACCGACCCGAGCAAACCCTT (double strand) [Prcr2] | binds |  |
| B1 |  | binds |
| B2 |  | no binding |
